Source: patent US8877192B2, “Rage fusion proteins and methods of use” (TransTech Pharma, LLC, priority 2004, dated 2014)

Tests used:
[1] = target: T1, amphoterin (Ampho) (Homo sapiens, UniProt P09429); test: In vitro ligand binding (ELISA) to immobilized amphoterin; conditions: increasing dilutions of fusion protein; FIG. 7
T1 sequence (P09429 1-215): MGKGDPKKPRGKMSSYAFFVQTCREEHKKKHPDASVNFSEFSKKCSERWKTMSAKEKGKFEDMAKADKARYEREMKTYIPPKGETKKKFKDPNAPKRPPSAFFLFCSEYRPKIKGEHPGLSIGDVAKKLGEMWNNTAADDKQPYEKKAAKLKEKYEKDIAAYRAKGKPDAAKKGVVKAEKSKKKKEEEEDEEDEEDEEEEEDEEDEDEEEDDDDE
Experimental: For example, the RAGE fusion protein may be used in a binding assay to identify potential RAGE ligands. In one example embodiment of such a binding assay, a known RAGE ligand may coated onto a solid substrate (e.g., Maxisorb plates) at a concentration of about 5 micrograms per well, where each well contains a total volume of about 100 microliters (μL). The plates may be incubated at 4° C. overnight to allow the ligand to absorb. Alternatively, shorter incubation periods at higher temperature (e.g., room temperature) may be used. […] The fusion protein bound to the immobilized ligand may be detected in a variety of ways. […] The bound complex may be detected by adding the alkaline phosphatase substrate, para-nitrophenylphosphate (PNPP), and measuring conversion of PNPP to para-nitrophenol (PNP) as an increase in absorbance at 405 nm. […] Binding was detected by the addition of an immunodetection complex containing a monoclonal mouse anti-human IgG1 diluted 1:11,000 to a final assay concentration (FAC) of 21 ng/100 μL, a biotinylated goat anti-mouse IgG diluted 1:500, to a FAC of […], and an avidin-linked alkaline phosphatase. […] Binding of the complex to the immobilized fusion protein was quantified by measuring conversion of PNPP to para-nitrophenol (PNP) which was measured spectrophotometrically at 405 nm. […]

[2] = system: Fc receptor; test: Fc receptor activation: TNF-α secretion from THP-1 cells; format: cell-based; conditions: wells precoated with 10 ug/well heat aggregated protein, 24 hours, FIG. 12
Description: Fc stimulation results in TNF-α secretion.

[3] = Pharmacokinetic profile of TTP-4000 after IV injection, plasma ELISA; format: in vivo, monkeys; conditions: single IV bolus 5 mg/kg, 2 animals, FIG. 11
Experimental: Following collection, the tubes were placed on wet ice (maximum 30 minutes) until centrifugation under refrigeration (at 2 to 8° C.) at 1500×g for 15 minutes. Each harvested plasma sample was then stored frozen (−70° C.±10° C.) until assayed for RAGE polypeptide using an ELISA at various time-points following the injection, as described in Example 6.
Initially, 50 uL of the RAGE specific monoclonal antibody 1HB1011 at a concentration of 10 ug/mL in 1×PBS pH 7.3 is coated on plates via overnight incubation. When ready for use, plates are washed three times with 300 uL of 1× Imidazole-Tween wash buffer and blocked with 1% BSA. […] The samples are allowed to incubate at room temperature for one hour. After incubation, the plates are plates are washed three times. A Goat Anti-human IgG1 1 (Sigma A3312) AP conjugate in 1×PBS with 1% BSA is added and allowed to incubate at room temperature for 1 hour. The plates are washed three times. Color was elucidated with paranitrophenylphosphate.

[4] = system: diabetic rat model of restenosis; test: Diabetic rat model of restenosis (balloon injury of left common carotid artery); format: in vivo, Zucker diabetic rats; conditions: 4 days after injury; dose-responsive; FIG. 13B
Experimental: In these experiments, balloon injury of left common carotid artery was performed in Zucker diabetic and nondiabetic rats using standard procedure. […] A maintenance dose was delivered every other day until day 7 after injury (i.e., at day 1, 3, 5 and 7 after injury). The maintenance dose was high=1 mg/animal for one group, or low=0.3 mg/animal for the second group. To measure vascular smooth muscle cell (VSMC) proliferation, animals were sacrificed at 4 days and 21 days after injury. For the measurement of cell proliferation, 4 day animals received intraperitoneal injection of bromodeoxyuridine (BrDdU) 50 mg/kg at 18, 12, and 2 hours before euthanasia. After sacrifice, the entire left and right carotid arteries were harvested. Specimens were stored in Histochoice for at least 24 hours before embedding. […] A fluorescence labeled goat anti-mouse secondary antibody was applied. The number of BrdU-positive nuclei per section were counted by two observers blinded to the treatment regimens.
The remaining rats were sacrificed at 21 days for morphometric analysis. Morphometric analyses were performed by an observer blinded to the study groups, using computerized digital microscopic planimetry software Image-Pro Plus on serial sections, ([…]) carotid arteries stained by Van Gieson staining All data were expressed as mean±SD. […]

binding to immobilized amphoterin (absorbance at 405 nm) [1]: specifically interact
B1: TTP-4000: four domain RAGE fusion protein (SEQ ID NO: 32): human RAGE amino acids 1-251 linked to CH2 and CH3 domains of human IgG (protein)
chain: MAAGTAVGAWALVLSLWGAVVGAQNITARIGEPLVLKCKGAPKKPPQRLEWKLNTGRTEAWKVLSPQGGGPWDSVARVLPNGSLFLPAVGIQDEGIFRCQAMNRNGKETKSNYRVRVYQIPGKPEIVDSASELTAGVPNKVGTCVSEGSYPAGTLSWHLDGKPLVPNEKGVSVKEQTRRHPETGLFTLQSELMVTPARGGDPRPTFSCSFSPGLPRHRALRTAPIQPRVWEPVPLEEVQLVVEPEGGAVAPPSVFLFPPKPKDTLMISRTPEVTCVVVDVSHEDPEVKFNWYVDGVEVHNAKTKPREEQYNSTYRVVSVLTVLHQDWLNGKEYKCKVSNKALPAPIEKTISKAKGQPREPQVYTLPPSRDELTKNQVSLTCLVKGFYPSDIAVEWESNGQPENNYKTTPPVLDSDGSFFLYSKLTVDKSRWQQGNVFSCSVMHEALHNHYTQKSLSLSPGK
TNF generated [2]: less than 2 ng/well | terminal half-life [3]: greater than 300 hours | vascular smooth muscle cell proliferation (BrdU-positive nuclei) [4]: significantly reduced
